Test results published in publication PMC4289617 (Journal of medicinal chemistry, 2010).
Where two headings read alike, the source gives them in different places. Me3 = trimethyl-lysine, K(Me3)

Experiments:
[1] = molecular target: T1, WDR5Δ23 (WD repeat domain 5, residues 24–334) (human, UniProt P61964 24-334); experiment: fluorescence polarisation
[2] = molecular target: T1, WDR5Δ23 (WD repeat domain 5, residues …); experiment: fluorescence polarisation; remark: listed apart in the source

Row | IC50 [1] [µM] | Ki [1] [µM] | Ki [2] [µM] | IC50 [2] [µM] | Binder
1 | – | 0.003 | – | – | Ac-ARAEVHLRKS-NH2 [Ac-10mer (Ac-ARAEVHLRKS-NH2)]
2 | – | – | < 0.001 | – | Ac-ARTKQTARKS-NH2 [Ac-H3-10mer (Ac-ARTKQTARKS-NH2)]

The remaining lines, values behind:

Row | Binder | IC50 [1] [µM] | Ki [1] [µM] | Ki [2] [µM] | IC50 [2] [µM]
3 | Ac-RAEVHLRKS-NH2 [Ac-9mer (Ac-10mer without Ala1)] | 29 | 6.3 | – | –
4 | Ac-ARAEVH-NH2 [Ac-6mer] | – | 0.09 | – | –
5 | H-ARTK(Me3)QTARKS-NH2 [H3-10mer-K4Me3 (H2N-ARTK(Me3)QTARKS-NH2)] | – | – | 15.6 | 73
